Assay [1] addresses T1, mouse CD3ε (mouse, UniProt P22646 22-189).
T1 construct: whole, on cells; The assay stained mouse T cells; also called mCD3e
Description: flow cytometry, BiTE supernatant on mouse T cells, anti-His tag detection. The source says: (§1) The DNA sequence corresponding to the G(EAAAK)3 (SEQ ID NO:9) linker ([…] (SEQ ID NO:8), followed by Mov19 scFv, 6× His Tag, Furin cleavage peptide, SGSG linker+P2A translational skipping sequence, and monomeric enhanced GFP (eGFP) reporter (to monitor transduction efficiency) was PCR amplified from an existing plasmid to generate overlapping DNA fragments amenable to assembly using NEBuilder (FIG. 7A). FR—B and FR-Bh sequences along with GFP reporter genes were inserted into the previously described retroviral vector¹ using NotI and PacI restriction sites, with DNA fragments assembled using NEBuilder HIFI DNA assembly (New England Biolabs). Plasmid sequences were confirmed by Sanger Sequencing, and retroviruses used to transduce human or mouse cells produced in PG13 or PLAT-E retroviral packaging cells lines, respectively. For murine studies, control T cells were either transduced with a retrovirus expressing a codon-optimized Luciferase (Luc2)-P2A-GFP gene and produced in PLAT-E cells or were Mock transduced. […] In all cases, cell culture supernatant from high-titer retrovirus producing clones was collected and used for viral transduction. For initial testing of BiTEs for antigen-specific binding, 293T cells were retrovirally transduced, followed by collection of 293T cell culture supernatants. […]
In general terms: Flow cytometry measures light scatter and fluorescence of single cells or particles in a stream.

The target in assay [2] is T2, human Folate Receptor alpha (FRα) (human, UniProt P15328 25-234).
T2 construct: whole, on cells; also called hFRα; hFRa
T2 sequence (P15328 25-234): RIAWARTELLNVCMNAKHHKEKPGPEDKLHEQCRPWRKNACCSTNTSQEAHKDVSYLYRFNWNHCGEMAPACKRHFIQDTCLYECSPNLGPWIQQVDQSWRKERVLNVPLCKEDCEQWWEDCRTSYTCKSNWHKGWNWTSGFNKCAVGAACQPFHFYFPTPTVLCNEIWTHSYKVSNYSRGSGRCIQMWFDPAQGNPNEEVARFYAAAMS
Description: flow cytometry, BiTE supernatant on IE9-mp1-hFRa cells, anti-His tag detection.
Text: as §1

The target in assay [3] is T3, human CD3ε (human, UniProt P07766 23-207).
T3 construct: whole, on cells; The assay stained human T cells; also called hCD3e; CD3e
T3 sequence (P07766 23-207): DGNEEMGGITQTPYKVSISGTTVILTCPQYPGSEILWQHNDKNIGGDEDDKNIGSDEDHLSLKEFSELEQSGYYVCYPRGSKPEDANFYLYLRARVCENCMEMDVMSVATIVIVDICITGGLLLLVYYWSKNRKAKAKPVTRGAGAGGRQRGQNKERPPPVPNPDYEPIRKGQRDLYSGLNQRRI
The assay is described as follows: flow cytometry on human T cells, anti-His tag detection.
Text: as §1

Assay [4] concerns the target T3, human CD3ε. The assay is described as follows: flow cytometry, BiTE supernatant on human T cells, anti-His tag detection.
Text: as §1

Assay [5] deals with T2, human Folate Receptor alpha (FRα). Description: flow cytometry, BiTE supernatant on FRα+ cancer cells, anti-His tag detection.
Text: as §1

For assay [6], the target named is T1, mouse CD3ε. The assay is described as follows: flow cytometry on mouse CD8+ T cells, anti-His tag detection; staining control.
Text: as §1

T1 sequence (P22646 22-189): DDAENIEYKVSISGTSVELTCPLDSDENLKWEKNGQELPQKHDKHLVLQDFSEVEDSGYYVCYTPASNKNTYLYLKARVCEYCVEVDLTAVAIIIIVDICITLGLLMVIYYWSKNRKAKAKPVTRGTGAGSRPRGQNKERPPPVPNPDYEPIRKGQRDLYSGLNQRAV

B1: FR-B, mouse FRα targeted BiTE (mCD3e scFv 145-2C11 x hFRα scFv MOv19), chimeric BiTE (bispecific antibody)
chain: GEVQLVESGGGLVQPGKSLKLSCEASGFTFSGYGMHWVRQAPGRGLESVAYITSSSINIKYADAVKGRFTVSRDNAKNLLFLQMNILKSEDTAMYYCARFDWDKNYWGQGTMVTVSSGGGGSGGGGSGGGGSDIQMTQSPSSLPASLGDRVTINCQASQDISNYLNWYQQKPGKAPKLLIYYTNKLADGVPSRFSGSGSGRDSSFTISSLESEDIGSYYCQQYYNYPWTFGPGTKLEIKGEAAAKEAAAKEAAAKDIELTQSPASLAVSLGQRAIISCKASQSVSFAGTSLMHWYHQKPGQQPKLLIYRASNLEAGVPTRFSGSGSKTDFTLNIHPVEEEDAATYYCQQSREYPYTFGGGTKLEIKGSTSGSGKSSEGKGQVQLQQSGAELVKPGASVKISCKASGYSFTGYFMNWVKQSHGKSLEWIGRIHPYDGDTFYNQNFKDKATLTVDKSSNTAHMELLSLTSEDFAVYYCTRYDGSRAMDYWGQGTTVTVSSGSGHHHHHH
notes: also called CONT-ENG; Cont-ENG
Turning to B1, the binding result was “binds” in the assay with mouse CD3ε [1], “binds” in assay [2] and “no binding” with human CD3ε [3].

B2: FR-Bh, human FRα targeted BiTE (hCD3e scFv UCHT1 x hFRα scFv MOv19) (bispecific antibody)
chain: GMDIQMTQTTSSLSASLGDRVTISCRASQDIRNYLNWYQQKPDGTVKLLIYYTSRLHSGVPSKFSGSGSGTDYSLTISNLEQEDIATYFCQQGNTLPWTFAGGTKLEIKGGGGSGGGGSGGGGSGGGGSEVQLQQSGPELVKPGASMKISCKASGYSFTGYTMNWVKQSHGKNLEWMGLINPYKGVSTYNQKFKDKATLTVDKSSSTAYMELLSLTSEDSAVYYCARSGYYGDSDWYFDVWGQGTTLTVFSGEAAAKEAAAKEAAAKDIELTQSPASLAVSLGQRAIISCKASQSVSFAGTSLMHWYHQKPGQQPKLLIYRASNLEAGVPTRFSGSGSKTDFTLNIHPVEEEDAATYYCQQSREYPYTFGGGTKLEIKGSTSGSGKSSEGKGQVQLQQSGAELVKPGASVKISCKASGYSFTGYFMNWVKQSHGKSLEWIGRIHPYDGDTFYNQNFKDKATLTVDKSSNTAHMELLSLTSEDFAVYYCTRYDGSRAMDYWGQGTTVTVSSGSGHHHHHH
notes: also called FRα-specific BiTE
Take B2: the figures for the binding result (with human CD3ε [4]; in assay [5]; in the assay with mouse CD3ε [6]) were “binds”, “binds” and “no binding”, respectively.

For the origin of these results see patent US20240408202A1 (HEALTH RESEARCH, published 2024).
